Source: paper PMC9871958 (Protein & Cell, 2022)
Positions count from the first letter of the chain named.

B1: 1F mutated at R102 (antibody, V domains shown)
VH: EVQLVESGPGLVKPSETLSLTCTVSGGSISSSSYYWGWIRQPPGKGLEWIGSIYYRGSTYYNPSLKSRVTISVDTSKNQFSLKLSSVTAADTAVYYCARHVASAYYYGSGSYRDEGNWFDPWGQGTLVTVSS
VL: QSVLTQPPSVSGAPGQRVTISCTGTRSNIGAGHDVHWYQQLPGTAPKLLIYGNNNRPSGVPDRFSGAKSGTSASLAITGLQAEDEADYYCQSYDRTLTSYVFGTGTKVTVL
notes: also called mutated 1F (R102)
B2: 1F mutated at D114 (antibody, V domains shown)
VH: B1 VH with A102R, D114A
VL: B1 VL
notes: also called mutated 1F (D114)

Target: SARS-CoV-2 RBD protein (SARS-CoV-2, UniProt P0DTC2)
Experiment: ELISA
Details: both partners purified

Binder	binding result
B1	no binding
B2	no binding
